Drawing on publication PMC6275602 (Cellular & Molecular Biology Letters, 2012), this text covers Kd, koff and kon for one molecule.

Like-named read-outs stand apart in the source and are kept apart here.

The term Kd denotes the concentration at which binding is half-saturated. Lower therefore signals higher affinity. For orientation: koff means a measure of how fast the partners let go of each other. The kon is a measure of how fast the partners come together. A higher kon goes with fast association.

Assay [1] concerns the target T1, human low-density lipoprotein (LDL; d = 1.019-1.063 g/ml) (human). Briefly: SPR. (In SPR one partner is held on a chip, and binding of the other changes the refractive index at the surface.)
Assay [2] deals with T1, human low-density lipoprotein (LDL; d = …). Briefly: SPR. This is another data set of the same source.

B1: sPLA2-X-HisTag, purified recombinant human (enzyme, UniProt O15496 43-165, looked up)
chain: GILELAGTVGCVGPRTPIAYMKYGCFCGLGGHGQPRDAIDWCCHGHDCCYTRAEEAGCSPKTERYSWQCVNQSVLCGPAENKCQELLCKCDQEIANCLAQTEYNLKYLFYPQFLCEPDSPKCD
In assay [1], B1 had a Kd of 3.1 nM, a koff of 0.00024 s⁻¹ and a kon of 65400 M⁻¹ s⁻¹. In assay [2], this molecule had a dissociation constant (Kd) of 110 nM, a koff of 0.00886 s⁻¹ and a kon of 82500 M⁻¹ s⁻¹.
